One data set has as its target T1, C-reactive protein (CRP) (UniProt P02741 19-224).
T1 sequence: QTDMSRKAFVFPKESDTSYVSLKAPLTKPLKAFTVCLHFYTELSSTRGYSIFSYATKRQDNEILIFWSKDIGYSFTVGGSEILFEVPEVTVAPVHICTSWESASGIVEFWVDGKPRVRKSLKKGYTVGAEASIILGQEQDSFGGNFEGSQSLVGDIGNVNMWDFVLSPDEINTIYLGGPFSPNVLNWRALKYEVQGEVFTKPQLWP
The data set is described as follows: electrochemical sandwich aptasensor.

The target of another data set is T2, alpha fetoprotein (AFP) (human, UniProt P02771 19-609).
T2 sequence: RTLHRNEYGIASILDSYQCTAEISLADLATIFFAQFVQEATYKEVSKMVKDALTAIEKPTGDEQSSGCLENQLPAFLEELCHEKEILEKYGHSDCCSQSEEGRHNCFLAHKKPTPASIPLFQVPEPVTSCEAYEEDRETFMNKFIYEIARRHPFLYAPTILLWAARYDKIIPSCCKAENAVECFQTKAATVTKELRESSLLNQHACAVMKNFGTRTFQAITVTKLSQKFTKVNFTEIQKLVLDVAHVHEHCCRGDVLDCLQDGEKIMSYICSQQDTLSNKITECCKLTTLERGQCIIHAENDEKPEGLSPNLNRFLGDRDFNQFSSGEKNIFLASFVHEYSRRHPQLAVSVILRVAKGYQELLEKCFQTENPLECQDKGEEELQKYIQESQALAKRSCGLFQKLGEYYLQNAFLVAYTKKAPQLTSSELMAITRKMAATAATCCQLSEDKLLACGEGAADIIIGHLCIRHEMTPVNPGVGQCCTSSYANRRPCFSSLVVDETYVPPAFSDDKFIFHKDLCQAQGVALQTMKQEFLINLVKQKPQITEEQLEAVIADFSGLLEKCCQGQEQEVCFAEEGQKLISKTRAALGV
In words: electrochemical sandwich aptasensor.

Regarding ATACCAGCTTATTCAATTATG (ssDNA, 5' HS-(CH2)6) [HS-P-ATG], the binding result in the data set with C-reactive protein (CRP) and with alpha fetoprotein (AFP) was “no binding” in each case.
For GACATACCAGCTTATTCAATT (ssDNA, 5' HS-(CH2)6) [HS-GAC-P], the binding result in the data set with C-reactive protein (CRP) and with alpha fetoprotein (AFP) was “no binding” each time.

For the origin of these results see paper PMC9060916.
